Laboratory results as given in patent US20150307590A1 (GOVERNORS OF THE UNIVERSITY OF ALBERTA, published 2015).
Positions count from the first letter of the chain named.

T1: human IL-28R alpha subunit (human, UniProt Q8IU57 21-228, limits assumed)
T1 construct: also called IL28R1; IL-28R1
T1 sequence: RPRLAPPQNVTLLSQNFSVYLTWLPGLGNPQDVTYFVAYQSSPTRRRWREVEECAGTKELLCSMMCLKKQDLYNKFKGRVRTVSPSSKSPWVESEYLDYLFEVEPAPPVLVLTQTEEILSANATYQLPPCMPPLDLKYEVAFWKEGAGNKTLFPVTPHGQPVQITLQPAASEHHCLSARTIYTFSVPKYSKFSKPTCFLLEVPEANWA

B1: human IL-28A (ligand)
chain: VPVARLHGALPDARGCHIAQFKSLSPQELQAFKRAKDALEESLLLKDCRCHSRLFPRTWDLRQLQVRERPMALEAELALTLKVLEATADTDPALVDVLDQPLHTLHHILSQFRACIQPQPTAGPRTRGRLHHWLYRLQEAPKKESPGCLEASVTFNLFRLLTRDLNCVASGDLCV
notes: also called IFN-λ2; interferon-lambda-2
B2: human IL-28B (ligand)
chain: B1 chain with H7R, R49K, H51R, M71V, V95G, F112L, Y135H
notes: also called IFN-λ3; interferon-lambda-3
B3: human IL-29 (ligand)
chain: GPVPTSKPTTTGKGCHIGRFKSLSPQELASFKKARDALEESLKLKNWSCSSPVFPGNWDLRLLQVRERPVALEAELALTLKVLEAAAGPALEDVLDQPLHTLHHILSQLQACIQPQPTAGPRPRGRLHHWLHRLQEAPKKESAGCLEASVTFNLFRLLTRDLKYVADGNLCLRTSTHPEST
notes: also called IFN-λ1; interferon-lambda-1

Biological target: T1, human IL-28R alpha subunit
Assay: ELISA (right panel)

Row | binding result | Binder
1 | binds | LLKDCKCRSRLFPRTWDLRQ (also called 28pep15) [Peptide 15 (IL28BT-2)]
2 | binds | LLKDCRCHSRLFPRTWDLRQ (also called 28pep16) [Peptide 16 (IL28AT-2)]
3 | binds | EATADTDPALGDVLDQPL (also called 28pep18) [Peptide 18 (IL28BT-3)]
4 | binds | ELASFKKARDALEESLKL (also called 28pep1; Pep1) [Peptide 1 (IL29-1)]
5 | binds | ELQAFKRAKDALEESLLL (also called 28pep2; Pep2) [Peptide 2 (IL28-1)]
6 | binds | KLKNWSCSSPVFPGNWDLRL (also called 28pep17; p17) [Peptide 17 (IL29T-2)]

Biological target: T1, human IL-28R alpha subunit
Assay: Biacore assay (left panel), n=6

Row | binding result | Binder
7 | binds | B1
8 | binds | B2
9 | binds | B3
